Numbering of substitutions follows the chain as printed. “And” between values parts separate entries of the source, which are not always exact repeats. Equal values may be shown once.

The target in this test is SARS-CoV-1 스파이크 단백질 (SARS-CoV-1 spike protein, SP) (SARS-CoV-1, UniProt P59594 14-1195).

B1: Anti-SP2에서 발현된 Fv-변이체 (expressed Fv-variant of Anti-SP2, fusion protein with sfGFP and His-tag) (other)
chain: EVQLVESAAEVRRPGASVKITCKASGYSFSTYGIQWMRQAPGQRPEWLGWIHAGTGGTKYSRKFQGRITITRDTSANTVYLDLNSLTSEDTAVYYCARCLRQAGTADDVWGQGTTVTVSS
As for B1, the Kd (commonly a measure of binding affinity in units of concentration) is 16.2 nM and 42.2 nM.

B2: Anti-SP1에서 발현된 Fv-변이체 (expressed Fv-variant of Anti-SP1, fusion protein with sfGFP and His-tag) (other)
chain: B1 chain with C99G, L100R, R101T, Q102T, A103G, G104N, T105D, A106R, D107P, V109Y
For the molecule B2, the Kd is 41.7 nM and 14.1 nM.
